Reference: the supplement of paper PMC10065799, “High-throughput profiling of sequence recognition by tyrosine kinases and SH2 domains using bacterial peptide display” (eLife, 2023)

Key:
Grb2 SH2 = Grb2 SH2 (UniProt P62993); experiment: SH2 binding enrichment of the phosphorylated peptide, bacterial display (enrichment ratio); higher = better substrate or ligand; peptides without Tyr show the background
SHP2-C SH2 = experiment: as above
c-Src SH2 = experiment: as above
c-Src = experiment: phosphorylation enrichment, bacterial display (enrichment ratio); higher = better substrate or ligand; peptides without Tyr show the background
Jak2 = Jak2 (UniProt O60674); experiment: as above
Sequence of Jak2 (O60674 whole entry, looked up): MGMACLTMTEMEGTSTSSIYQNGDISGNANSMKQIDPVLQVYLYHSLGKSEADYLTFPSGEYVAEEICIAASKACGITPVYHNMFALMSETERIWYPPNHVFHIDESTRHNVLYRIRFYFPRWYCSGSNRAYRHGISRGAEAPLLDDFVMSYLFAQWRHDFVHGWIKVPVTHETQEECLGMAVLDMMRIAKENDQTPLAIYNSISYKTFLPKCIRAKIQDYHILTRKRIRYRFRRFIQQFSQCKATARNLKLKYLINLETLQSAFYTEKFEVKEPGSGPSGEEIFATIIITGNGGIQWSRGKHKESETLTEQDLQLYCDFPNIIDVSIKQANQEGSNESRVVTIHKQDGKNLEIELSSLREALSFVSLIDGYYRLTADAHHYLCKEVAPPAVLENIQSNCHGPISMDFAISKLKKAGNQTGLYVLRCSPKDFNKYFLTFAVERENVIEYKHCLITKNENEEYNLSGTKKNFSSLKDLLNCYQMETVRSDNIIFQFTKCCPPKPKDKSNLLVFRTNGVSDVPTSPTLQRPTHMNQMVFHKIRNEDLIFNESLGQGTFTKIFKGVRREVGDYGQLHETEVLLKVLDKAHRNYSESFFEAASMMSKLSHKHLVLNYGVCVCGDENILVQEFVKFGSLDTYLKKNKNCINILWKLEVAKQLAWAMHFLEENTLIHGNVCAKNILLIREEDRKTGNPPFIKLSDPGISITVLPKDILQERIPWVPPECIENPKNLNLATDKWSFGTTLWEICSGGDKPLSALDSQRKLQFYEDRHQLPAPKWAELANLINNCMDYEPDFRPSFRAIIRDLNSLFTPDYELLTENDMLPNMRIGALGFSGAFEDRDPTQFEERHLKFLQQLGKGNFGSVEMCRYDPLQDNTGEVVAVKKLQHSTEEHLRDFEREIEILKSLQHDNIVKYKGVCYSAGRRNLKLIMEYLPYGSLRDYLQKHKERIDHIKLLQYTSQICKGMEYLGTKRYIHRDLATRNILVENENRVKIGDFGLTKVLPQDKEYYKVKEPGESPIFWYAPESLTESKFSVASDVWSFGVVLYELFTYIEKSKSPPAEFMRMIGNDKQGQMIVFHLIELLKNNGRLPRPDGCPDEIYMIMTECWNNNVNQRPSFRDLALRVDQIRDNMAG

EPHB1 = EPHB1 (UniProt P54762); experiment: as above
Fes = Fes (UniProt P07332); experiment: as above
Sequence of Fes (P07332 whole entry, looked up): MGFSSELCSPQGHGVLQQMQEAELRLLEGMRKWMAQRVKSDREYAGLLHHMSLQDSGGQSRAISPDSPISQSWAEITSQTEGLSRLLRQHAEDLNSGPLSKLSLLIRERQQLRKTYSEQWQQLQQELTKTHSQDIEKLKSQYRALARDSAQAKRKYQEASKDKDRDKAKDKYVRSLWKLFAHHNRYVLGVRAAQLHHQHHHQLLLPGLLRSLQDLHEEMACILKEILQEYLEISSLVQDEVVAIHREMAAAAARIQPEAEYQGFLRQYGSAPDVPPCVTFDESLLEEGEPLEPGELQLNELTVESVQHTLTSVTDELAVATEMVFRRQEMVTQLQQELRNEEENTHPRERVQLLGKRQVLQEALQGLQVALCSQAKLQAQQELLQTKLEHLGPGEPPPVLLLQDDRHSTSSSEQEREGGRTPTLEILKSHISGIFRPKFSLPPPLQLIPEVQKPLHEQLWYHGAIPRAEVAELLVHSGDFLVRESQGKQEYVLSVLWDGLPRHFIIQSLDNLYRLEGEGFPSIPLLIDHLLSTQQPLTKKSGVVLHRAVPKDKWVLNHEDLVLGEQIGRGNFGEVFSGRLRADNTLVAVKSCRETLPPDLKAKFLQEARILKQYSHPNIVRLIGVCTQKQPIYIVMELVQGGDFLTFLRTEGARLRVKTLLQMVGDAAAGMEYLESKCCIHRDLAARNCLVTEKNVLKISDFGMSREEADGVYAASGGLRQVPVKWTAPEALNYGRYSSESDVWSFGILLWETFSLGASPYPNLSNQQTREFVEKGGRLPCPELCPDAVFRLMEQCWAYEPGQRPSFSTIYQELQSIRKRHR

Fyn = Fyn (UniProt P06241); experiment: as above
Sequence of Fyn (P06241 whole entry, looked up): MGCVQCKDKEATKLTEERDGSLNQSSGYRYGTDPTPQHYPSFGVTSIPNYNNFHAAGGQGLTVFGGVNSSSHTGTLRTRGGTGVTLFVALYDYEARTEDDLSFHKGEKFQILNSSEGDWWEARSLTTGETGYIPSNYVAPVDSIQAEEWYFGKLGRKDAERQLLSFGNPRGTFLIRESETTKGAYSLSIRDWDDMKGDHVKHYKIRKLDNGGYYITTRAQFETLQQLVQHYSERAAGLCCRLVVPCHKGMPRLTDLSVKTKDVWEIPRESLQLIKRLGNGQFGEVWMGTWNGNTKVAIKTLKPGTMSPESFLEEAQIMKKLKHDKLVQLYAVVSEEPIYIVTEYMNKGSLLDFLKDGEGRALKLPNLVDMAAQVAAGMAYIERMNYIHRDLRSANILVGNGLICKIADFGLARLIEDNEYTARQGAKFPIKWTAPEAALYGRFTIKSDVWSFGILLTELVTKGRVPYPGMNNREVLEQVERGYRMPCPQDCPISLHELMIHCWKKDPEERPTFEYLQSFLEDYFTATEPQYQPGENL

AncSZ = experiment: as above
Hck = Hck (UniProt P08631); experiment: as above
Sequence of Hck (P08631 whole entry, looked up): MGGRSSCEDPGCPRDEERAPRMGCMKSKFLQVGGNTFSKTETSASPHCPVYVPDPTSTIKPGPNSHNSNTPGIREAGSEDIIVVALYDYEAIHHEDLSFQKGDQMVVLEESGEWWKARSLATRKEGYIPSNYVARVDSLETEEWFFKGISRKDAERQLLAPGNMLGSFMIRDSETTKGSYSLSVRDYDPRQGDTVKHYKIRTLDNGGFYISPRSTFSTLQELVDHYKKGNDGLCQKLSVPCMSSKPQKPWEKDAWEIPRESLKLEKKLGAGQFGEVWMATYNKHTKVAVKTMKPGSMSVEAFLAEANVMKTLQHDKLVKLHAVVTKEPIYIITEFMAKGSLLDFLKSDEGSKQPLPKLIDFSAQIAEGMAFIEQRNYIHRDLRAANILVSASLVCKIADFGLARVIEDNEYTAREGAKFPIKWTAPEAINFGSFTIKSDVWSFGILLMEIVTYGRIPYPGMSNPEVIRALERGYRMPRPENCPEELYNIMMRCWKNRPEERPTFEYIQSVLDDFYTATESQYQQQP

MERTK = MERTK (UniProt Q12866); experiment: as above
Sequence of MERTK (Q12866 whole entry, looked up): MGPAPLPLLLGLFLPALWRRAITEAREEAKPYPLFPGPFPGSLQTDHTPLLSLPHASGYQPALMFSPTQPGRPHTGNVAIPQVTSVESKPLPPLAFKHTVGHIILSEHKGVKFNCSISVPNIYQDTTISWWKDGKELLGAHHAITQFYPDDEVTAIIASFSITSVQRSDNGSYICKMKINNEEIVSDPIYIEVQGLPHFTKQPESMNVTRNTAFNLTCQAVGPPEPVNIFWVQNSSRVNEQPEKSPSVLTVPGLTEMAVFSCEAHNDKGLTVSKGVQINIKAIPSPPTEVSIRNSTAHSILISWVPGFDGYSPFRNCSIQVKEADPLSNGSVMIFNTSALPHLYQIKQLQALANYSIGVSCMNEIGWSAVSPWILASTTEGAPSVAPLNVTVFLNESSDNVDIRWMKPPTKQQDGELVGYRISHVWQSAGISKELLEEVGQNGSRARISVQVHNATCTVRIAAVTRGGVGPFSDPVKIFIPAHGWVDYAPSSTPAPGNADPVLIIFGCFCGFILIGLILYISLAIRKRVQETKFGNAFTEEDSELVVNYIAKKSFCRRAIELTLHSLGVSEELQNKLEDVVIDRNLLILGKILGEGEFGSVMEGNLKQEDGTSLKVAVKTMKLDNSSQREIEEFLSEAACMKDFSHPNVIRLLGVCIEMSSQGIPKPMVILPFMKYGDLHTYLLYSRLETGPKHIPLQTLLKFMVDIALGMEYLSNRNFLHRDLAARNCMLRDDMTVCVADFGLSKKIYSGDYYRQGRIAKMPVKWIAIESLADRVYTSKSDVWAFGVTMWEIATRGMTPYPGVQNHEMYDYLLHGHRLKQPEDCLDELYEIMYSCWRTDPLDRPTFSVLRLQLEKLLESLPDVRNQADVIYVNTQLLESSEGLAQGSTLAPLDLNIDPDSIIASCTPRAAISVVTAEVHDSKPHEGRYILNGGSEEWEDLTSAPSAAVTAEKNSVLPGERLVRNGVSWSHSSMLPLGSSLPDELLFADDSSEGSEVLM

Fer (mouse) = experiment: as above
c-Abl (mouse) = experiment: as above
EPHB2 = EPHB2 (UniProt P29323); experiment: as above
FGFR1 = FGFR1 (UniProt P11362); experiment: as above
FGFR3 = FGFR3 (UniProt P22607); experiment: as above
Sequence of FGFR3 (P22607 whole entry, looked up, the tested form may be a part): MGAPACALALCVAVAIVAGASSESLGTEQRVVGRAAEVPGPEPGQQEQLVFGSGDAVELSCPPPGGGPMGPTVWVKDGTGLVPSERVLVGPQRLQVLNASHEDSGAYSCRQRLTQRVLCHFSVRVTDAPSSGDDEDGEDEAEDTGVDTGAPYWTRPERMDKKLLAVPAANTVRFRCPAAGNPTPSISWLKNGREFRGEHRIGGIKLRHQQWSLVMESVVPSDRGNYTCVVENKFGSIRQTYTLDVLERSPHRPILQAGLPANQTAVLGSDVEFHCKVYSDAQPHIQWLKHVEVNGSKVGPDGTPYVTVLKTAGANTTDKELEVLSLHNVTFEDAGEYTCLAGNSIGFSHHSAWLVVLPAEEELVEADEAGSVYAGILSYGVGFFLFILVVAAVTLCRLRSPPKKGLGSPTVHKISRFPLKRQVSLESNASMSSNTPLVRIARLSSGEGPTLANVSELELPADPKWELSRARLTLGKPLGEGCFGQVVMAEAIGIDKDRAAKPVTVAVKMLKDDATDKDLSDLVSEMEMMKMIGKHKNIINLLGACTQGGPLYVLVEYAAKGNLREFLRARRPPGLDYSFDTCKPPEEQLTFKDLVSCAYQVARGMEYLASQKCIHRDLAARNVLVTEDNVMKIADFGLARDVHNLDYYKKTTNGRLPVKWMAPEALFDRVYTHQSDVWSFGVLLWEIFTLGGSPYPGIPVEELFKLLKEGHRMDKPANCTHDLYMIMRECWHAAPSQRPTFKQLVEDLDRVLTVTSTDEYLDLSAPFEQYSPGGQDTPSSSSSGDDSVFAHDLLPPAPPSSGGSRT
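Wherever SH2 binding enrichment of the phosphorylated peptide, bacterial display is given: peptide library displayed on the E. coli surface as eCPX fusions, selected cells deep-sequenced, score is each peptide's frequency after selection divided by its frequency in the input.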
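Wherever phosphorylation enrichment, bacterial display is given: 11-residue human phosphosite peptides and single-mutation variants displayed on the E. coli surface, counted by deep sequencing, each peptide's frequency after selection divided by its frequency in the unselected input library; frequency after pTyr selection over input frequency; kinase dosed for 20-30% of maximal phosphorylation in three min.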

Row | Sequence | SH2 binding enrichment (Grb2 SH2) | SH2 binding enrichment (SHP2-C SH2) | SH2 binding enrichment (c-Src SH2) | phosphorylation enrichment (c-Src) | phosphorylation enrichment (Jak2) | phosphorylation enrichment (EPHB1) | phosphorylation enrichment (Fes) | phosphorylation enrichment (Fyn) | phosphorylation enrichment (AncSZ) | phosphorylation enrichment (Hck) | phosphorylation enrichment (MERTK) | phosphorylation enrichment (Fer (mouse)) | phosphorylation enrichment (c-Abl (mouse)) | phosphorylation enrichment (EPHB2) | phosphorylation enrichment (FGFR1) | phosphorylation enrichment (FGFR3)
1 | LATINYPFEKG [NDUFS8_Y84_P79L] | 1.09 | 0.628 | 0.557 | 0.467 | 0.642 | 0.565 | 0.914 | 0.421 | 0.827 | 0.401 | 0.377 | 0.5 | 0.64 | 0.484 | 0.503 | 0.576
2 | LDAFIYNAAVL [GRIN2A_Y730_D731N] | 0.927 | 0.761 | 0.5 | 2.32 | 0.874 | 1.3 | 2.08 | 4.57 | 1.72 | 4.05 | 0.704 | 1.95 | 0.972 | 1.57 | 2.36 | 1.62
3 | LEIETDRRLLD [KRT12_Y429_Y429D] | 1 | 1.11 | 0.538 | 1.41 | 2.8 | 1.13 | 3.18 | 1.29 | 2.31 | 1.08 | 0.93 | 1.06 | 2.64 | 1.03 | 1.35 | 1.4
4 | LEIETYPRLLD [KRT12_Y429_R430P] | 0.826 | 0.65 | 0.498 | 0.772 | 1.85 | 0.802 | 1.87 | 0.599 | 1.3 | 0.41 | 0.461 | 0.646 | 1.1 | 0.953 | 0.787 | 1.06
5 | LEIETYRRLRD [KRT12_Y429_L433R] | 0.754 | 0.725 | 0.471 | 0.672 | 1.23 | 0.533 | 1.25 | 0.658 | 0.859 | 0.674 | 0.834 | 0.351 | 0.659 | 0.559 | 0.645 | 0.809
6 | LFDPDYMKVIL [CYP4A22_Y104_YF] | 0.775 | 0.564 | 0.392 | 0.675 | 1.23 | 1.42 | 4.91 | 0.675 | 1.76 | 0.759 | 0.502 | 1.2 | 0.958 | 1.43 | 1.5 | 1.44
7 | LGQRIYQFIRS [DYRK1B_Y271_Q275R_YF] | 1.38 | 1.07 | 2.21 | 2.83 | 0.887 | 9.19 | 1.19 | 1.86 | 1.3 | 6.17 | 6.97 | 5.51 | 0.98 | 2.54 | 1.39 | 1.21
8 | LIDSSYLTRTA [GREB1L_Y1063] | 0.844 | 0.714 | 0.426 | 0.489 | 0.651 | 0.43 | 0.668 | 0.571 | 0.748 | 0.425 | 0.527 | 0.905 | 0.634 | 0.746 | 0.507 | 0.44
9 | LIGRRYDDPEV [HSPA9_Y128] | 0.674 | 0.5 | 0.822 | 1.27 | 1.35 | 1.11 | 2.17 | 0.836 | 2.69 | 0.707 | 0.889 | 0.809 | 1.25 | 1.63 | 0.643 | 0.9
10 | LIHLHYIRRDY [BBS4_Y43_K46R] | 1.52 | 1.17 | 0.763 | 0.388 | 0.562 | 0.334 | 0.773 | 0.389 | 0.952 | 0.47 | 0.524 | 0.41 | 0.524 | 0.526 | 0.417 | 0.759
11 | LITTLYIGFLD [KCNQ1_Y267_G272D] | 1.09 | 0.906 | 0.744 | 4.15 | 3.07 | 1.25 | 3.12 | 2.56 | 2.56 | 1.71 | 0.929 | 1.78 | 2.36 | 1.16 | 0.777 | 1.35
12 | LITTLYISFLG [KCNQ1_Y267_G269S] | 0.872 | 0.621 | 0.838 | 1.56 | 2.27 | 0.852 | 1.98 | 0.913 | 1.47 | 1.15 | 0.902 | 0.757 | 1.64 | 0.784 | 0.71 | 1.06
13 | LITTPYIGFLG [KCNQ1_Y267_L266P] | 0.781 | 2.18 | 0.492 | 1.35 | 0.983 | 0.449 | 1.35 | 0.782 | 0.834 | 0.473 | 0.554 | 0.667 | 0.528 | 0.5 | 0.616 | 0.641
14 | LKFAIYFEVRE [LAMA2_Y1258_A1261V_YF] | 0.877 | 1.11 | 0.653 | 0.831 | 2.52 | 0.652 | 1.72 | 0.414 | 1.65 | 0.569 | 0.808 | 0.932 | 1.74 | 0.483 | 0.556 | 1.08
15 | LKGQVYILVRE [ASS1_Y359_G362V] | 0.878 | 0.896 | 0.525 | 0.334 | 1.14 | 0.682 | 1.36 | 0.343 | 1.43 | 0.454 | 0.375 | 0.328 | 0.921 | 0.652 | 0.481 | 0.982
16 | LKKLEYLNLAL [LRRC6_Y70] | 2.59 | 1.49 | 0.424 | 0.367 | 1.23 | 0.81 | 1.43 | 0.408 | 1.05 | 0.489 | 0.296 | 0.549 | 0.574 | 0.987 | 1.36 | 1.14
17 | LKLIQYHLIQQ [AKAP4_Y554_T557I] | 1.51 | 4.15 | 2.22 | 0.582 | 1.4 | 0.95 | 1.67 | 0.553 | 1.2 | 0.659 | 0.774 | 0.544 | 1.16 | 0.737 | 0.687 | 0.924
18 | LKYAIYFEARE [LAMA2_Y1258] | 0.907 | 0.793 | 0.449 | 1.49 | 3.01 | 1.59 | 2.41 | 1.21 | 2.42 | 1.67 | 0.907 | 0.822 | 1.94 | 1.4 | 0.938 | 1.64
19 | LLARLYRGQAL [FGFR4_Y390_G388R] | 0.827 | 0.512 | 0.461 | 0.489 | 0.823 | 0.713 | 0.887 | 0.795 | 0.9 | 0.519 | 0.442 | 0.507 | 0.937 | 0.477 | 0.529 | 0.592
20 | LLLLFYVVRYC [MPZ_Y177] | 1.77 | 1.53 | 1.33 | 0.492 | 0.735 | 0.359 | 0.738 | 0.463 | 0.722 | 0.438 | 0.54 | 0.468 | 0.574 | 0.345 | 0.415 | 0.436

The next lines start with results.

Row | SH2 binding enrichment (Grb2 SH2) | SH2 binding enrichment (SHP2-C SH2) | SH2 binding enrichment (c-Src SH2) | Sequence | phosphorylation enrichment (c-Src) | phosphorylation enrichment (Jak2) | phosphorylation enrichment (EPHB1) | phosphorylation enrichment (Fes) | phosphorylation enrichment (Fyn) | phosphorylation enrichment (AncSZ) | phosphorylation enrichment (Hck) | phosphorylation enrichment (MERTK) | phosphorylation enrichment (Fer (mouse)) | phosphorylation enrichment (c-Abl (mouse)) | phosphorylation enrichment (EPHB2) | phosphorylation enrichment (FGFR1) | phosphorylation enrichment (FGFR3)
21 | 1.04 | 0.738 | 0.524 | LEDDMYRKTCT [XPA_Y257] | 0.624 | 1.56 | 1.15 | 2.56 | 1.78 | 2.07 | 0.984 | 0.848 | 1.37 | 1.17 | 1.03 | 1.24 | 1.67
22 | 0.708 | 0.861 | 0.448 | LESTLYESSVV [TRPV4_Y91] | 1.83 | 2.15 | 1.41 | 2.34 | 1.26 | 1.94 | 1.6 | 1.21 | 9.02 | 1.45 | 1.35 | 1.31 | 1.47
23 | 1.04 | 0.577 | 0.54 | LFMGDYVDRGF [PPP2CA_Y86_YF] | 0.61 | 0.696 | 0.961 | 0.963 | 0.814 | 0.95 | 0.673 | 0.396 | 0.546 | 0.616 | 1.19 | 0.822 | 0.943
24 | 0.904 | 1.02 | 0.478 | LGKLTYPVGFW [NTHL1_Y177_I176T] | 1.35 | 2.04 | 1.12 | 2.06 | 1.14 | 2.42 | 1.23 | 0.889 | 1.32 | 1.32 | 1.65 | 1.31 | 1.48
25 | 0.995 | 0.557 | 0.637 | LHSDHYSPSGR [TMPRSS12_Y23_Y19H] | 0.503 | 0.414 | 0.431 | 0.585 | 0.778 | 1.79 | 0.851 | 0.617 | 0.746 | 0.569 | 0.672 | 0.485 | 0.871
26 | 1.58 | 1.09 | 1.1 | LLREWYLPDPY [SIX3_Y225_Q227P] | 0.49 | 1.04 | 0.541 | 1.14 | 0.477 | 0.888 | 0.484 | 0.351 | 0.409 | 0.969 | 0.473 | 0.636 | 0.816
27 | 1.42 | 2.31 | 0.978 | LLREWYLQDPF [SIX3_Y225_YF] | 0.788 | 1.52 | 0.557 | 1.73 | 0.564 | 1.43 | 0.509 | 0.567 | 0.661 | 1.15 | 0.765 | 0.941 | 0.784
28 | 2.1 | 1.96 | 1.73 | LLRFLYFFVCS [SLC34A2_Y109_G106R] | 0.587 | 1.69 | 0.606 | 1.59 | 0.519 | 0.948 | 0.704 | 0.744 | 0.573 | 0.697 | 0.585 | 0.72 | 1.22
29 | 1.9 | 1.61 | 1.34 | LLRLAYLADIF [ZBED5_Y476] | 0.419 | 0.99 | 0.69 | 1.02 | 0.457 | 0.872 | 0.54 | 0.432 | 0.745 | 0.765 | 0.677 | 0.64 | 0.636
30 | 0.999 | 0.68 | 0.983 | LMQAEYWHDPI [PPT1_Y185_V181M] | 0.54 | 1.16 | 1.2 | 1.56 | 0.835 | 1.36 | 0.769 | 0.557 | 0.773 | 0.724 | 0.863 | 6.07 | 4.42
31 | 0.758 | 1.08 | 2.03 | LNAGAYSKVVE [PPT1_Y172_Q177E] | 0.523 | 0.541 | 0.431 | 0.664 | 0.306 | 0.447 | 0.411 | 0.448 | 0.551 | 0.46 | 0.416 | 0.436 | 0.378
32 | 0.873 | 0.527 | 0.588 | LNCDRYSVGLL [PDE6A_Y275] | 0.823 | 1.2 | 0.961 | 1.59 | 0.734 | 1.16 | 0.889 | 0.709 | 0.898 | 0.929 | 1.51 | 0.712 | 1.2
33 | 0.98 | 0.773 | 0.528 | LNERHYGGLTD [PGAM2_Y92_G97D] | 0.515 | 0.457 | 1.1 | 0.663 | 0.975 | 1.18 | 1.08 | 0.629 | 0.7 | 0.605 | 0.83 | 0.977 | 1.12
